The source of these data is PMC10040874.

The chains are these.
B1: Drosophila melanogaster PRL (wild-type) [D. melanogaster] / Drosophila melanogaster CNNM CBS-pair domain, GST-tagged [D. melanogaster] (parent)
chain 1: MSITMRQKDLRPAPALIEYKGMKFLITDRPSDITINHYIMELKKNNVNTVVRVCEPSYNTDELETQGITVKDLAFEDGTFPPQQVVDEWFEVLKDKYQQNPEACVAVHCVAGLGRAPVLVALALIELGLKYEAAVEMIRDKRRGAINAKQLSFLEKYKPKARLKHKNGHKNSCSVQ
chain 2: VNIISGALELRKKTVADVMTHINDAFMLSLDALLDFETVSEIMNSGYSRIPVYDGDRKNIVTLLYIKDLAFVDTDDNTPLKTLCEFYQNPVHFVFEDYTLDIMFNQFKEGTIGHIAFVHRVNNEGDGDPFYETVGLVTLEDVIEELIQAEIVDE

The variants in the experiment derive from B1. Description: ITC. The note with it: with Drosophila melanogaster CNNM CBS-pair domain, 16 µM CNNM titrated with 160 µM PRL.
Take chain 1 R143E: the Kd was 7.5 µM.

With chain 1 C109D, the Kd was determined as 0.6 µM.

The Kd is the constant that tells how readily two partners part at equilibrium.
